Experimental data taken from PMC10569793.

Columns and labels:
[1] = molecular target: complex V (D. melanogaster), monomer (D. melanogaster (endogenous in fly mitochondria)); assay: native gel or EMSA; BN-PAGE (NativePAGE 3-12% Bis-Tris) of wild-type fly mitochondria solubilised with 4 mg digitonin per mg protein; Coomassie stain and in-gel activity of CI and CIV
[2] = molecular target: complex V (D. melanogaster), monomer (D. melanogaster (endogenous in fly mitochondria)); assay: native gel or EMSA; complexome profiling: wild-type fly mitochondria solubilised with 6 g digitonin/g protein (50 mM NaCl, 5 mM 6-aminohexanoic acid, 1 mM EDTA, 50 mM imidazole/HCl pH 7.0), 4-16% gradient BN-PAGE, lane cut into 60 slices, LC-MS/MS, label-free quantification
[3] = molecular target: mitochondrial respiratory chain complex IV (D. melanogaster) (D. melanogaster (endogenous in fly mitochondria)); assay: native gel or EMSA; BN-PAGE (NativePAGE 3-12% Bis-Tris) of mitochondria solubilised with 4 mg DDM per mg protein; Coomassie, in-gel activity, western blot of subunits; wild-type, Coa8 KO, Coa8 RNAi, strong Bcs1 RNAi and Ndufs4 RNAi flies or larvae with their controls
[4] = molecular target: mitochondrial respiratory chain complex IV (D. melanogaster) (D. melanogaster (endogenous in fly mitochondria)); assay: native gel or EMSA; BN-PAGE (NativePAGE 3-12% Bis-Tris) of wild-type fly mitochondria solubilised with 4 mg digitonin per mg protein; Coomassie stain and in-gel activity of CI and CIV

stoichiometry N [1]	stoichiometry N [2]	stoichiometry N [3]	stoichiometry N [4]	Substance
2	2			complex V (D. melanogaster), monomer
		2	2	mitochondrial respiratory chain complex IV (D. melanogaster)
